Test results reported in US20200317768A1 (published 2020).

T1: cynomolgus monkey FcγRIIa1 extracellular domain with C-terminal His-tag (cynomolgus monkey)
T1 construct: Expressed in FreeStyle 293 cells and purified; also called cyno FcγRIIa1; cynoFcgRIIa1; not shown: C-terminal His-tag
T1 chain: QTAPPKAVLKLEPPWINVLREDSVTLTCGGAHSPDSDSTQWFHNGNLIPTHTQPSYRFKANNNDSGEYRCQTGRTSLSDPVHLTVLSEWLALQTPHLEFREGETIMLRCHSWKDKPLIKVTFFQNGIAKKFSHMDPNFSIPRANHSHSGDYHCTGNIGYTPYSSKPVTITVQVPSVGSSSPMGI

T2: cynomolgus monkey FcγRIIa2 extracellular domain with C-terminal His-tag (cynomolgus monkey)
T2 construct: Expressed in FreeStyle 293 cells and purified; also called cyno FcγRIIa2; cynoFcgRIIa2; not shown: C-terminal His-tag
T2 chain: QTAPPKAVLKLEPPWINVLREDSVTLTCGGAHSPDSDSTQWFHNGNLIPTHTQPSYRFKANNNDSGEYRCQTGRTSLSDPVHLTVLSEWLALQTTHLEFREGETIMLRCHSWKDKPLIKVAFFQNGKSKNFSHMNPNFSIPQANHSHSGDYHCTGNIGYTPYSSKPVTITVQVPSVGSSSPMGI

T3: cynomolgus monkey FcγRIIa3 extracellular domain with C-terminal His-tag (cynomolgus monkey)
T3 construct: Expressed in FreeStyle 293 cells and purified; also called cyno FcγRIIa3; cynoFcgRIIa3; not shown: C-terminal His-tag
T3 chain: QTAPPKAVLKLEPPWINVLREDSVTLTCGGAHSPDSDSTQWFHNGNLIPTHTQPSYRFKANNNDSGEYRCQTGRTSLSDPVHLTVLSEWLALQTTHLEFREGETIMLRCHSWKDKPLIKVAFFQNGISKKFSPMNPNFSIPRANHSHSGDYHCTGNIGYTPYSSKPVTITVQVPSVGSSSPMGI

T4: cynomolgus monkey FcγRIIb extracellular domain with C-terminal His-tag (cynomolgus monkey)
T4 construct: Expressed in FreeStyle 293 cells and purified; also called cyno FcγRIIb; cynoFcγRIIb; not shown: C-terminal His-tag
T4 chain: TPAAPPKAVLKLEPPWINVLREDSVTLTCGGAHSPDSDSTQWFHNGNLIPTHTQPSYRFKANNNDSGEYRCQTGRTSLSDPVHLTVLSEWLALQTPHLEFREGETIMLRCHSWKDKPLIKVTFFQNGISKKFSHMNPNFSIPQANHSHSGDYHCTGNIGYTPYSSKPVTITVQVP

T5: cynomolgus monkey FcγRIIIaS extracellular domain with C-terminal His-tag (cynomolgus monkey, UniProt Q8SPW2 21-206 at identity 1.00))
T5 construct: Expressed in FreeStyle 293 cells and purified; also called cyno FcγRIIIaS; cynoFcγRIIIaS; not shown: C-terminal His-tag
T5 chain: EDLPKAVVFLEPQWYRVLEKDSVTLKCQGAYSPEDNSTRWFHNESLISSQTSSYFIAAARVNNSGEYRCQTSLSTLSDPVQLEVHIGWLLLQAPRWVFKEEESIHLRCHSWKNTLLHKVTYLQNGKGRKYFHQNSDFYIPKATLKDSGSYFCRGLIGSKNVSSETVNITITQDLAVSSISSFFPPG

T6: human FcγRIIaH extracellular domain with C-terminal His-tag (human, UniProt P12318 34-217)
T6 construct: Expressed in FreeStyle 293 cells and purified; also called human FcγRIIa (type H); FcgRIIaH; not shown: C-terminal His-tag
T6 sequence: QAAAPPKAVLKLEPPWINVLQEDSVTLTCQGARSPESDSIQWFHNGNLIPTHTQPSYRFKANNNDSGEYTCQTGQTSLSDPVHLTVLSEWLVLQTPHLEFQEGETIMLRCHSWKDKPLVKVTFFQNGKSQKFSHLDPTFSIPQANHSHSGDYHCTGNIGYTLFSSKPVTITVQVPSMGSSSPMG

T7: human FcγRIIaR extracellular domain with C-terminal His-tag (human, UniProt P12318 34-217)
T7 construct: Expressed in FreeStyle 293 cells and purified; also called human FcγRIIa (type R); FcgRIIaR; not shown: C-terminal His-tag
T7 chain: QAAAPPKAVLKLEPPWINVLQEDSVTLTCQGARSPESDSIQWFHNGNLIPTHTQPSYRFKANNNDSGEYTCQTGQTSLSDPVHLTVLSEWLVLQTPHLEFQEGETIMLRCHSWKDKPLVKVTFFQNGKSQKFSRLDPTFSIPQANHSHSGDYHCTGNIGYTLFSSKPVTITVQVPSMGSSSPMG

T8: human FcγRIIb extracellular domain with C-terminal His-tag (human, UniProt P31994 43-217)
T8 construct: Expressed in FreeStyle 293 cells and purified; also called humanFcgRIIb; not shown: C-terminal His-tag
T8 sequence: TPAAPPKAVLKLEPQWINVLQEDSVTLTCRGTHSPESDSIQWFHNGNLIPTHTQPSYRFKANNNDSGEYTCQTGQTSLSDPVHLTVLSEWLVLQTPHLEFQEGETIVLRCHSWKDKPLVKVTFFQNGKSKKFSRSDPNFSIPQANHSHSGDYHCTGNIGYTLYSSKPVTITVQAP


Legend:
Experiment in all cases: SPR (Biacore); KD of SG1 divided by KD of the variant for this FcgR;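 note: relative to parent M103205H795-SG1 carrying the SG1 human heavy chain constant region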
[1] = molecular target: T1, cynomolgus monkey FcγRIIa1 …
Method: (§1) Regarding such interactions, KD values were calculated using the following 1:1 binding model described in BIACORE® T100 Software Handbook BR1006-48 Edition AE.
(§2) The behavior of interacting molecules according to the 1:1 binding model on BIACORE® can be described by Equation 1: Req=C·R max/(KD+C)+RI, wherein, Req is a plot of steady-state binding levels to analyte concentration. C is concentration, RI is bulk refractive index contribution in the sample, and Rmax is analyte binding capacity of the surface. When this equation is rearranged, KD can be expressed as Equation 2: KD=C·Rmax/(Req−RI)−C. KD can be calculated by substituting the values of Rmax, RI, and C into Equation 1 or Equation 2. From the current measurement conditions, RI=0, C=2 μmol/L can be used.
(§3) The variants were expressed using M103202L889-SK1 as the light chain and their affinity was analyzed.

[2] = molecular target: T2, cynomolgus monkey FcγRIIa2 …
Method: as §1, §2, §3

[3] = molecular target: T3, cynomolgus monkey FcγRIIa3 …
Method: as §1, §2, §3

[4] = molecular target: T4, cynomolgus monkey FcγRIIb extracellular …
Method: as §1, §2, §3

[5] = molecular target: T5, cynomolgus monkey FcγRIIIaS …
Method: as §1, §2, §3

[6] = molecular target: T6, human FcγRIIaH extracellular domain …
Method: as §1, §2, §3

[7] = molecular target: T7, human FcγRIIaR extracellular domain …
Method: as §1, §2, §3

[8] = molecular target: T8, human FcγRIIb extracellular domain with …
Method: as §1, §2, §3

[9] = molecular target: T9, human FcγRIIIaV extracellular domain with C-terminal His-tag (human, UniProt P08637 17-208)
T9 construct: Expressed in FreeStyle 293 cells and purified; also called FcgRIIIaV; not shown: C-terminal His-tag
T9 sequence (P08637 17-208 F176V): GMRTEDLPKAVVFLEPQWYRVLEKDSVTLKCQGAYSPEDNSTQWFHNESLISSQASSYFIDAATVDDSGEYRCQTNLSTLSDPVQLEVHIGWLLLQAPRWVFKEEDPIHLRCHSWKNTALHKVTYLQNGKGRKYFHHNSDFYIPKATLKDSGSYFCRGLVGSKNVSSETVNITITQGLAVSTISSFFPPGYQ
Method: as §1, §2, §3

KD fold (SG1 = 1) [1]	KD fold (SG1 = 1) [2]	KD fold (SG1 = 1) [3]	KD fold (SG1 = 1) [4]	KD fold (SG1 = 1) [5]	KD fold (SG1 = 1) [6]	KD fold (SG1 = 1) [7]	KD fold (SG1 = 1) [8]	KD fold (SG1 = 1) [9]	Binder
1.9 fold	3.4 fold	3.4 fold	1.6 fold	0.08 fold	0.4 fold	0.4 fold	3.3 fold	0.05 fold	M103205H795-MY200 / M103202L889-SK1 (antibody, human IgG1, kappa, Fc variant of M103205H795-SG1, expressed with M103202L889-SK1 as light chain) heavy: QVTLKESGPVLVKPTETLTLTCTVSGIDLSHDDISWVRQAPGKGLEWVGIISYAGSTYYASWAKGRLTISKDTSKNQVVLTMTNMDPVDTATYYCARGVPAYSHGGDLWGQGTLVTVSSASTKGPSVFPLAPSSKSTSGGTAALGCLVKDYFPEPVTVSWNSGALTSGVHTFPAVLQSSGLYSLSSVVTVPSSSLGTQTYICNVNHKPSNTKVDKKVEPKSCDKTHTCPPCPAPELLNGPVVFLFPPKPKDTLMISRTPEVTCVVVDVSEEDPEVKFNWYVDGVEVHNAKTKPREEQYNSTYRVVSVLTVLHQDWLNGKEYKCKVSNKALPKPIEKTISKAKGQPREPQVYTLPPSREEMTKNQVSLTCLVKGFYPSDIAVEWESNGQPENNYKTTPPVLDSDGSFFLYSKLTVDKSRWQQGNVFSCSVMHEALHNHYTQKSLSLSP light: DIVMTQSPATLSLSPGERATLSCTSSQSVYHANWLSWFQQKPGQPPKLLIYWASTLAYGVPSRFSGSGSGTDFTLTISSLQPEDAATYYCAGGYGGGRYAFGQGTKVEIKRTVAAPSVFIFPPSDEQLKSGTASVVCLLNNFYPREAKVQWKVDNALQSGNSQESVTEQDSKDSTYSLSSTLTLSKADYEKHKVYACEVTHQGLSSPVTKSFNRGEC
2.3 fold	8.6 fold	4.4 fold	4.3 fold	0.06 fold	0.8 fold	0.6 fold	4.2 fold	0.05 fold	M103205H795-MY201 / M103202L889-SK1 (antibody, human IgG1, kappa, Fc variant of M103205H795-SG1, expressed with M103202L889-SK1 as light chain; also called MS1032LO06-MY201) heavy: QVTLKESGPVLVKPTETLTLTCTVSGIDLSHDDISWVRQAPGKGLEWVGIISYAGSTYYASWAKGRLTISKDTSKNQVVLTMTNMDPVDTATYYCARGVPAYSHGGDLWGQGTLVTVSSASTKGPSVFPLAPSSKSTSGGTAALGCLVKDYFPEPVTVSWNSGALTSGVHTFPAVLQSSGLYSLSSVVTVPSSSLGTQTYICNVNHKPSNTKVDKKVEPKSCDKTHTCPPCPAPELLNGPSVFLFPPKPKDTLMISRTPEVTCVVVDVSDEDPEVKFNWYVDGVEVHNAKTKPREEQYNSTYRVVSVLTVLHQDWLNGKEYKCKVSNKALPKPIEKTISKAKGQPREPQVYTLPPSREEMTKNQVSLTCLVKGFYPSDIAVEWESNGQPENNYKTTPPVLDSDGSFFLYSKLTVDKSRWQQGNVFSCSVMHEALHNHYTQKSLSLSP light: DIVMTQSPATLSLSPGERATLSCTSSQSVYHANWLSWFQQKPGQPPKLLIYWASTLAYGVPSRFSGSGSGTDFTLTISSLQPEDAATYYCAGGYGGGRYAFGQGTKVEIKRTVAAPSVFIFPPSDEQLKSGTASVVCLLNNFYPREAKVQWKVDNALQSGNSQESVTEQDSKDSTYSLSSTLTLSKADYEKHKVYACEVTHQGLSSPVTKSFNRGEC
5.3 fold	8 fold	7.7 fold	3.9 fold	0.09 fold	0.6 fold	0.9 fold	6.5 fold	0.09 fold	M103205H795-MY202 / M103202L889-SK1 (antibody, human IgG1, kappa, Fc variant of M103205H795-SG1, expressed with M103202L889-SK1 as light chain) heavy: QVTLKESGPVLVKPTETLTLTCTVSGIDLSHDDISWVRQAPGKGLEWVGIISYAGSTYYASWAKGRLTISKDTSKNQVVLTMTNMDPVDTATYYCARGVPAYSHGGDLWGQGTLVTVSSASTKGPSVFPLAPSSKSTSGGTAALGCLVKDYFPEPVTVSWNSGALTSGVHTFPAVLQSSGLYSLSSVVTVPSSSLGTQTYICNVNHKPSNTKVDKKVEPKSCDKTHTCPPCPAPELLNGPVVFLFPPKPKDTLMISRTPEVTCVVVDVSDEDPEVKFNWYVDGVEVHNAKTKPREEQYNSTYRVVSVLTVLHQDWLNGKEYKCKVSNKALPKPIEKTISKAKGQPREPQVYTLPPSREEMTKNQVSLTCLVKGFYPSDIAVEWESNGQPENNYKTTPPVLDSDGSFFLYSKLTVDKSRWQQGNVFSCSVMHEALHNHYTQKSLSLSP light: DIVMTQSPATLSLSPGERATLSCTSSQSVYHANWLSWFQQKPGQPPKLLIYWASTLAYGVPSRFSGSGSGTDFTLTISSLQPEDAATYYCAGGYGGGRYAFGQGTKVEIKRTVAAPSVFIFPPSDEQLKSGTASVVCLLNNFYPREAKVQWKVDNALQSGNSQESVTEQDSKDSTYSLSSTLTLSKADYEKHKVYACEVTHQGLSSPVTKSFNRGEC
